Test [1] has as its target T1, human CXCR5 (human, UniProt P32302 1-372).
T1 construct: also called hCXCR5; C-X-C chemokine receptor type 5
T1 sequence: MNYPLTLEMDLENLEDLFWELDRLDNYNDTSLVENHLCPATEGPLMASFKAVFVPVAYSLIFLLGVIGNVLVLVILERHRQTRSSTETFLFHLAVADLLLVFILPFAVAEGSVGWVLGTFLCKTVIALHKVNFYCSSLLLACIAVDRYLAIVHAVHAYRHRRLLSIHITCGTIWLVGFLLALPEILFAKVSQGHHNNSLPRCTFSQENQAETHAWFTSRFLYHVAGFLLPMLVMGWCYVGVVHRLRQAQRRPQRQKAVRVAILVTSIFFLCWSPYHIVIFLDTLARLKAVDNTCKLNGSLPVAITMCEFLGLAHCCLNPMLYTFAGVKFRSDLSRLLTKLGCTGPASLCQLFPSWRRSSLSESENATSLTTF
In words: flow cytometry on Raji cells, fucosylated chimeric antibody. On the procedure:
The fucosylated chimeric antibodies were then purified using protein A columns. The apparent affinity (cell binding EC50s) of chimeric antibody binding to Raji cells was determined by flow cytometry using a FACSVerse Analyzer (BD Bioscience, Franklin Lakes, N.J.) and are shown in Table 3.
Background: Flow cytometry measures light scatter and fluorescence of single cells or particles in a stream.

Test [2] addresses T2, cynomolgus monkey CXCR5 (cynomolgus monkey, UniProt P32302 1-372 (human entry)).
T2 construct: also called cynoCXCR5; NHP CXCR5
T2 chain: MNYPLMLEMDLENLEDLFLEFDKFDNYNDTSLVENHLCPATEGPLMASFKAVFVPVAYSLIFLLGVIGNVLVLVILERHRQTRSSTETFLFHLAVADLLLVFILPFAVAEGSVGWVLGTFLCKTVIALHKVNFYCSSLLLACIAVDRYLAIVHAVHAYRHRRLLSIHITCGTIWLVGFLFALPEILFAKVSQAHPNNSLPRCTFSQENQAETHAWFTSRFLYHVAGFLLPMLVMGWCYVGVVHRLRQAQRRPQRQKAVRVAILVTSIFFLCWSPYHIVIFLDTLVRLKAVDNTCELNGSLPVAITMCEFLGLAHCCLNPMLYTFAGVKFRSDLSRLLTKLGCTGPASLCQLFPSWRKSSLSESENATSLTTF
Nature of the test: flow cytometry on cynoCXCR5-300.19 cells, fucosylated chimeric antibody.

The target in a further test is T3, CXCR1 (human, UniProt P25024 1-350).
T3 construct: whole, on cells
T3 sequence (looked up): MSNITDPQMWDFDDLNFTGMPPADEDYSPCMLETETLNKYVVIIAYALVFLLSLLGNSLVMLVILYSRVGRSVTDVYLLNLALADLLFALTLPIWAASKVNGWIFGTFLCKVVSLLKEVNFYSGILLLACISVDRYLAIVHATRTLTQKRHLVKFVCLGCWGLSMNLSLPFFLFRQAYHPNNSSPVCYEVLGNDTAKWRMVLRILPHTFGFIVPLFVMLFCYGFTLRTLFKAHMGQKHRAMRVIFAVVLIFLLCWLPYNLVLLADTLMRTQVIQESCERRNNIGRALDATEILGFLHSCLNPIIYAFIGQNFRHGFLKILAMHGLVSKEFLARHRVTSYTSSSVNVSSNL
Nature of the test: flow cytometry (GMFI) on fixed CXCR1 cells, chimeric antibody, goat anti-human PE. On the procedure:
(§1) To determine the specificity of the antibodies for CXCR5, the binding of the antibodies to cells expressing other […] was assessed. Briefly, FlowCellect chemokine receptor cell lines expressing CXCR1, CXCR2, or CXCR3 (EMD Millipore, Billerica, Mass.), and Jurkats (ATCC, Manassas, Va.), which express CXCR4, were stained with 5 μg/ml or 10 μg/ml of each anti-CXCR5 chimeric antibody. The cells were then incubated with goat anti-human conjugated with PE (Southern Biotech, Birmingham, Ala.) prior to analysis by flow cytometry using a FACSVerse Analyzer (BD Biosciences, Franklin Lakes, N.J.).

The next test concerns the target T4, CXCR2 (human, UniProt P25025 1-360).
T4 construct: whole, on cells
T4 sequence (looked up): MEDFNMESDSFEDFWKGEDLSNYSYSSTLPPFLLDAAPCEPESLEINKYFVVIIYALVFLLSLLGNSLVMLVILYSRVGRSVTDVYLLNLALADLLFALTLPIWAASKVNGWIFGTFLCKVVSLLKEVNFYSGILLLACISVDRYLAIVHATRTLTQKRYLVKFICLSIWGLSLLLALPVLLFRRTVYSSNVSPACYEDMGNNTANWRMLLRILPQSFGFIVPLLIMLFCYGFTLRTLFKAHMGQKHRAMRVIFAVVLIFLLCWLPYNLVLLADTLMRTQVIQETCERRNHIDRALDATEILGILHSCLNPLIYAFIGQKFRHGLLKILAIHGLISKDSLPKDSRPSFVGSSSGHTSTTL
Nature of the test: flow cytometry (GMFI) on fixed CXCR2 cells, chimeric antibody, goat anti-human PE. On the procedure: as §1

In another test the target is T5, CXCR3 (human, UniProt P49682 1-368).
T5 construct: whole, on cells
T5 sequence (looked up): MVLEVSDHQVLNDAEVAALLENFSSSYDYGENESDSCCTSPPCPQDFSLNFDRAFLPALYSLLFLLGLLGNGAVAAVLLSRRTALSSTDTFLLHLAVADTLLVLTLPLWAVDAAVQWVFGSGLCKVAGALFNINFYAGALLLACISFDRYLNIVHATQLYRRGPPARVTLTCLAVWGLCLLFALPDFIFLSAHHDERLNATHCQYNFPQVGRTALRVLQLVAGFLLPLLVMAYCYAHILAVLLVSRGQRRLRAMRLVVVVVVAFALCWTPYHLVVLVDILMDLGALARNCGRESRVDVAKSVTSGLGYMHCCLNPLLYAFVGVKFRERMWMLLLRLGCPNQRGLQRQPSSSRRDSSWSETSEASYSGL
In words: flow cytometry (GMFI) on fixed CXCR3 cells, chimeric antibody, goat anti-human PE. On the procedure:
as §1

In the next test the target is T6, CXCR4 (human, UniProt P61073 1-352).
T6 construct: whole, on cells
In words: flow cytometry (GMFI) on Jurkat cells, which express CXCR4; chimeric antibody, goat anti-human PE. On the procedure: as §1

For test [3], the target named is T1, human CXCR5. In words: cell-based or functional assay.
In test [4] the target is T1, human CXCR5. In words: flow cytometry, human PBMC B cells. On the procedure:
(§2) The apparent affinity for cell surface CXCR5 of chimeric and humanized CXCR5 fucosylated and afucosylated antibodies was assessed. More specifically, to determine the apparent affinity of chimeric and humanized CXCR5 antibodies to CXCR5-expressing cells, cell binding experiments were performed on human and cynomolgus monkey peripheral blood mononuclear cells (PBMCs) and human tonsillar mononuclear cells (TMCs). The apparent affinity of CXCR5 mab binding to CXCR5+ cells (B cells, bona fide Tfh cells, and circulating Tfh-like cells) was calculated as the EC50 of equilibrium binding titration curves in which the geometric mean fluorescence intensity (gMFI) of the antigen binding population was quantified by flow cytometry.
(§3) Following isolation, PBMCs were plated at a density of 1.0×10⁵ cells per well and CD4+ TMCs were plated at a density of 2.0×10⁵ cells per well in isolation buffer (PBS containing 1% FBS and 1 mM EDTA) in 96 well U-bottom plates. The plates were then centrifuged at 1500 rpm for 5 minutes at room temperature. PBMCs and CD4+ TMCs were resuspended in Fluorescence-activated cell sorting (FACS) buffer (PBS containing 1% FBS) containing human crystallized fragment Fc block (2 μL per well; Biolegend) and 4-fold serial dilutions of the antibodies (11-point dilution series, beginning at 5000 ng/mL for PBMCs and 312.5 ng/mL for CD4+ TMCs) and incubated on ice for 2 hours. PBMCs and CD4+ TMCs were then washed with FACS buffer 3 times and resuspended in 50-100 μL of FACs buffer containing fluorescent-conjugated antibodies for staining lymphocyte subsets and a fluorescent-conjugated secondary antibody against human Ig to detect CXCR5 monoclonal antibodies (mAbs). After incubation for 30 minutes at 4° C., PBMCs and CD4+ TMCs were washed with FACS buffer 2 times and resuspended in 125 μL of 0.5% paraformaldehyde (PFA) in PBS. Plates were stored at 4° C. until analysis by flow cytometry (BD LSRFortessa™ Cell Analyzer, BD Biosciences, Franklin Lakes, N.J.).
(§4) The cell binding titration curves were generated by plotting the gMFI of the antigen binding population against the log of CXCR5 antibody concentration. EC₅₀ values were determined using GraphPad Prism® (version 6.0, GraphPad Software, Inc, San Diego, Calif.) nonlinear-regression curve fits and a sigmoidal log of agonist dose-response model, according to the following equation

Test [5] has as its target T2, cynomolgus monkey CXCR5. In words: flow cytometry, cynomolgus PBMC B cells. On the procedure:
as §2, §3, §4

2 molecules from patent US20210101970A1 (Pfizer, published 2021) can be followed below.

By EC50 is commonly meant the midpoint of the concentration-response curve.

T6 sequence (P61073 whole entry): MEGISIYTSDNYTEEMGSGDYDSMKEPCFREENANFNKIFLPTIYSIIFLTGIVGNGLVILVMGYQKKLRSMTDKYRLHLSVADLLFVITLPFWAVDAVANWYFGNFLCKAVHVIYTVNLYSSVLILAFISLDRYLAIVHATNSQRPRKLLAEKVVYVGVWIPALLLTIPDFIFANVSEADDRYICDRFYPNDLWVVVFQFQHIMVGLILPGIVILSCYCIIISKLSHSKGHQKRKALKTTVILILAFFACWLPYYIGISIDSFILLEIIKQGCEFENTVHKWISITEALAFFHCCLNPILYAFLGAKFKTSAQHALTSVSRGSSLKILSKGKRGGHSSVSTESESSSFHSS

B1: chimeric 5H7 (antibody, human IgG1, kappa, V domains shown)
VH: EVKLVESGGGLVQPGDSLRLSCATSGFTFTDFYMSWVRQPPGRALEWLGFIRNKANGYTTEYSASVKGRFTISRDNSQSILYLQMNTLRAGDSATYYCVRVYGSTLHYWGQGTILTVSS
VL: DVVVTQSPDSLAVSLGQRATISCRASESVEYHGTSLMHWYQQKPGQPPKLLIYAASNVESGVPARFSGSGSGTDFSLNIHPVEEGDVSMFFCQQSRKVPWTFGGGTKLEIKR
notes: mouse V regions on human IgG1/kappa; fucosylated; also called 5H7 (chimeric)
In the case of B1, the EC50 in the test with human CXCR5 [1] was found to be 0.0421 nM; in the test with cynomolgus monkey CXCR5 [2], 0.0603 nM. The binding result with CXCR1, with CXCR2, with CXCR3 and in the test with CXCR4 was “no binding (tested: 5 or 10 µg/ml (not on the sheet))” each time.

B2: Chimeric 41A10 (antibody, human IgG1, kappa, V domains shown)
VH: EVQLVESGGDLVKPGGSLKLSCAASGFTFRSYGMSWVRQTPDKRLEWVATISSGGTYTFYPDILKGRITISRDNAKNTLYLQMSNLKSEDTAMYYCARRGEDYRGALEHWGQGTSVTVSS
VL: QIVLTQSPAVMSASPGEKVTMTCSASSSVNYIHWYQQKSGTSPKRWIYETSRLASGVPVRFSGSGSGTSYSLTISTMEAEDAATYYCQQWSSNPLTFGAGTKLELKR
notes: mouse V regions on human IgG1/kappa; fucosylated; also called 41A10 (chimeric)
Consider B2, for which, in the test with human CXCR5 [3], the “ADCC Activity Average EC50, Human B Cells” value was 11.7 nM. Moreover, the EC50 was 0.161 nM with human CXCR5 [4], 0.549 nM with cynomolgus monkey CXCR5 [5], 0.39 nM with human CXCR5 [1] and 0.831 nM with cynomolgus monkey CXCR5 [2]. For the same molecule, the binding result with CXCR1, with CXCR2 and with CXCR3 was “no binding (tested: 5 or 10 µg/ml (not on the sheet))” throughout.
